This assay addresses Complement C1q (human, UniProt P02745 23-245; P02746 28-253; P02747 29-245). The experiment in a line: ELISA.

We go through one molecule from publication PMC2213499 (The Journal of Experimental Medicine, 2000).

Complement C1q, sequence (P02745 23-245, chain 1 of 3): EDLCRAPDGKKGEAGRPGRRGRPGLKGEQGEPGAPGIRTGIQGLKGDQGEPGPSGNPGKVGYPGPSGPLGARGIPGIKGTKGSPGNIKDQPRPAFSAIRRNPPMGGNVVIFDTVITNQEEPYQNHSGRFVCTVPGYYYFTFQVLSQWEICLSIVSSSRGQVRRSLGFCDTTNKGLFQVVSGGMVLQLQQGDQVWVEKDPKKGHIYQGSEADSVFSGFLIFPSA
Complement C1q, sequence (P02746 28-253, chain 2 of 3): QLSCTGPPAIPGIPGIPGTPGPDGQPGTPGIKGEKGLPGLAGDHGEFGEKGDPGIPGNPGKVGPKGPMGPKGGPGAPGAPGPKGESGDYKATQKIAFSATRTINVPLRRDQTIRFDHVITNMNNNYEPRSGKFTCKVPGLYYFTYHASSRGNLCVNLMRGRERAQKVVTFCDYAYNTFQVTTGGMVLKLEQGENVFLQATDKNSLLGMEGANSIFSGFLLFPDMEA
Complement C1q, sequence (P02747 29-245, chain 3 of 3): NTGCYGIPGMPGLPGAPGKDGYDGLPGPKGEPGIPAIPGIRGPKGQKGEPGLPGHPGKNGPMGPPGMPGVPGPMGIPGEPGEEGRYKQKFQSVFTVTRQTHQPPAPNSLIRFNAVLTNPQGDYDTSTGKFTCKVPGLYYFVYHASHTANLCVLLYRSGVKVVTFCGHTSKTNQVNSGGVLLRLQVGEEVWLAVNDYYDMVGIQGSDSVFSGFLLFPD

B1: Recombinant soluble complement receptor 1 (sCR1) (domain or fragment)
chain: not shown
modifications: 125I in the radioligand assays with immobilised MBL; unlabelled elsewhere
Consider B1, for which the binding result is “binds”.
